Substrate: O=[N+]([O-])c1ccc(O[C@@H]2O[C@H](CO)[C@@H](O)[C@H](O)[C@H]2O)cc1
Assay: purified protein

Protein | Km [mM] | kcat [min⁻¹]
β-glucosidase B (BglB) (Paenibacillus polymyxa) (protein) MSENTFIFPATFMWGTSTSSYQIEGGTDEGGRTPSIWDTFCQIPGKVIGGDCGDVACDHFHHFKEDVQLMKQLGFLHYRFSVAWPRIMPAAGIINEEGLLFYEHLLDEIELAGLIPMLTLYHWDLPQWIEDEGGWTQRETIQHFKTYASVIMDRFGERINWWNTINEPYCASILGYGTGEHAPGHENWREAFTAAHHILMCHGIASNLHKEKGLTGKIGITLNMEHVDAASERPEDVAAAIRRDGFINRWFAEPLFNGKYPEDMVEWYGTYLNGLDFVQPGDMELIQQPGDFLGINYYTRSIIRSTNDASLLQVEQVHMEEPVTDMGWEIHPESFYKLLTRIEKDFSKGLPILITENGAAMRDELVNGQIEDTGRHGYIEEHLKACHRFIEEGGQLKGYFVWSFLDNFEWAWGYSKRFGIVHINYETQERTPKQSALWFKQMMAKNGF | 6.5 ± 0.2 | 1070 ± 10
β-glucosidase B (BglB) (Paenibacillus polymyxa; T431I) (protein) MSENTFIFPATFMWGTSTSSYQIEGGTDEGGRTPSIWDTFCQIPGKVIGGDCGDVACDHFHHFKEDVQLMKQLGFLHYRFSVAWPRIMPAAGIINEEGLLFYEHLLDEIELAGLIPMLTLYHWDLPQWIEDEGGWTQRETIQHFKTYASVIMDRFGERINWWNTINEPYCASILGYGTGEHAPGHENWREAFTAAHHILMCHGIASNLHKEKGLTGKIGITLNMEHVDAASERPEDVAAAIRRDGFINRWFAEPLFNGKYPEDMVEWYGTYLNGLDFVQPGDMELIQQPGDFLGINYYTRSIIRSTNDASLLQVEQVHMEEPVTDMGWEIHPESFYKLLTRIEKDFSKGLPILITENGAAMRDELVNGQIEDTGRHGYIEEHLKACHRFIEEGGQLKGYFVWSFLDNFEWAWGYSKRFGIVHINYETQERIPKQSALWFKQMMAKNGF | 5.1 ± 0.1 | 919 ± 43
β-glucosidase B (BglB) (Paenibacillus polymyxa; M319C) (protein) MSENTFIFPATFMWGTSTSSYQIEGGTDEGGRTPSIWDTFCQIPGKVIGGDCGDVACDHFHHFKEDVQLMKQLGFLHYRFSVAWPRIMPAAGIINEEGLLFYEHLLDEIELAGLIPMLTLYHWDLPQWIEDEGGWTQRETIQHFKTYASVIMDRFGERINWWNTINEPYCASILGYGTGEHAPGHENWREAFTAAHHILMCHGIASNLHKEKGLTGKIGITLNMEHVDAASERPEDVAAAIRRDGFINRWFAEPLFNGKYPEDMVEWYGTYLNGLDFVQPGDMELIQQPGDFLGINYYTRSIIRSTNDASLLQVEQVHCEEPVTDMGWEIHPESFYKLLTRIEKDFSKGLPILITENGAAMRDELVNGQIEDTGRHGYIEEHLKACHRFIEEGGQLKGYFVWSFLDNFEWAWGYSKRFGIVHINYETQERTPKQSALWFKQMMAKNGF | 6.0 ± 0.5 | 899 ± 31
β-glucosidase B (BglB) (Paenibacillus polymyxa; K337D) (protein) MSENTFIFPATFMWGTSTSSYQIEGGTDEGGRTPSIWDTFCQIPGKVIGGDCGDVACDHFHHFKEDVQLMKQLGFLHYRFSVAWPRIMPAAGIINEEGLLFYEHLLDEIELAGLIPMLTLYHWDLPQWIEDEGGWTQRETIQHFKTYASVIMDRFGERINWWNTINEPYCASILGYGTGEHAPGHENWREAFTAAHHILMCHGIASNLHKEKGLTGKIGITLNMEHVDAASERPEDVAAAIRRDGFINRWFAEPLFNGKYPEDMVEWYGTYLNGLDFVQPGDMELIQQPGDFLGINYYTRSIIRSTNDASLLQVEQVHMEEPVTDMGWEIHPESFYDLLTRIEKDFSKGLPILITENGAAMRDELVNGQIEDTGRHGYIEEHLKACHRFIEEGGQLKGYFVWSFLDNFEWAWGYSKRFGIVHINYETQERTPKQSALWFKQMMAKNGF | 4.3 ± 0.1 | 789 ± 40

Source: paper doi:10.1101/839027v1
